Data taken from the nanobody polyreactivity screen of Harvey et al. (2022).

Experiment: yeast display, Sf9 membrane polyspecificity reagent, FACS + sequencing; frameworks hold sequencing errors
How it was run: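 Galactose-induced (36–48 hours) yeast carrying a synthetic nanobody display library were exposed to 10% biotinylated, detergent-solubilized Sf9 membrane reagent at 4 °C for 1 hour. FACS followed streptavidin microbead enrichment, using low and high (top ~1%) gates for expression (anti-HA) and reagent binding (streptavidin). Colony PCR, MiSeq 2 × 250 sequencing and CDR-length filtering followed. Labels for polyreactivity reflect the gate of origin.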

Sequence	polyreactivity (PSR sort gate)
QVQLVESGGGLVQAGGSLRLSCAASGLTFYYYVMGWYRQAPGKERELVAAISKSGGRTYYADSVKGRFTISRDNAKNTVYLQMNSLKPEDSAVYYCAAMYTPNYTAYDSWGQGTQVTVSS	high polyreactivity
QVQLVESGGGLVQAGGSLRLSCAASGRTFKYYAMGWYRQAPGKERELVASISRSGGITYYADSVKGRFTISRDNAKNTVYLQMNSLKPEDTAVYYCAARYSVRPISIYPFDFGYWGQGTQVTVSS	low polyreactivity
QVQLVESGGGLVQAGGSLRLSCAASGSTFYGNAMGWYRQAPGKERELVGAIRWRGGRTYYADSVKGRFTISRDNANNTVYLQMNSLKPEDTAVYYCNALPGVSHTQYDRVGYWGQGTQVTVSS	high polyreactivity
QVQLVESGGGLVQAGGSLRLSCAASGRTFQVNAMGWYRQAPGKERELVAAISASDGSTYADSVKGRFTISRDNAKNTVYLQMNSLKPEDTAVYYCNKAAYGGHRTSEQVGWVYLYDYWGQGTQVTVSS	low polyreactivity
QVQLVESGGGLVQAGGRLRLSCAASGLIFYVYAMGWYRQEPGKERELVASITWSGGRTYYADSVKGRFTISRDNEKNTVYLQMNSLKPEDTAVYYCATDLIQGAAPFRYDYWGQGTQVTVSS	low polyreactivity
QVQLVESGGGLVQAGGSLRLSCAASGIIFRNYAMGWYRQAPGKERELVAAISRNGGSTYYADSVKGRFTISRDNAKNTVYLQMNSLKPEDTAVYYCAARASYPNWTYYYWGKGTQVTVSS	high polyreactivity
QVQLVESGGGLVQAGGSLRLSCAASRLIFYTYAMGWYRQAPGKETELVAAISFSGGSTYYADSVTGRFTISRDNAKNTVYLLMTSLKPEDTAVYYCAARGYYGYYYWGQGTQVTVSS	high polyreactivity
QVQLVESGGGLVQAGGSLRLSCAASGSTFRHYAMGWYRQAPGKERELVAVISWGGTSTYYADSVKGRFTISRDNAKNTVYLQMNSLKPEDTAVYYCNKAYFPIFKGYEMYYWGQGTQVTVSS	low polyreactivity
QVQLVESGGGLVQAGGSLRLSCAASGSTFDENAMGWYRQAPGKERELVAGITTNGGSTSYADSVKGRFTISRDNAKNTVYLQMNSLKPEDTAVYYCAKGLYVQFDYWGQGSQVTVSS	low polyreactivity
QVQIVESGGGLVQAVGSLRLSCAASGRIFHYNSMRWYRQAPGKERELVAAITDSTGGSTYYADSVKGRFTISRDNAKNTVYLQMNSLKPEDTAVYYFAAQDYQYSDYQWWFGYWGQGTKVTVSS	low polyreactivity
QVQLVESGGGLVQAGGSLRLSCAASGRIFSVYAMGWYRPAPGKERELVAAITRVGSTNYADSVKGRFTISRDNAKNTVYLQMNSLKPEDTAVYYCAASKYGSLSGYWGQGTQVTVSS	high polyreactivity
QVQLVESGGGLVQAGGSLRLSCAASGRIFRYYTMGWYRQAPGKERELVAAINSSCGSTYYADSVKGRFTISRDNAKNTVYLQMNSLIAEDTAVYYCNAVGYTGRYQFWRVWDVHGDYWGQGNQVTVSS	high polyreactivity
QVQLVESGGGLVQAGGSLRLSCAASGRIFVHYAMGWYRQAPGKERELVAAISRSGGSTYYADSVKGRFTISRDTAKNTVYLQMNSLKPEDTAVYYCNTYPLSQFGPYWSGYDYWGQGTQVTVSS	high polyreactivity
QVQLVESGGGLVQAGGSLRLSCAASGFTLHVYAMGWYRQAPGKERELVAAISTGGNTNFADSVKGRFTISRDNAKNTVYLQMNSLKPEDTAVYYCNTLGRYSSYYWGLGTQVTVSS	high polyreactivity
QVQLVESGGGLVQAGGSLRLSCAASGRTSWVNAMGWYRQAPGKERELVAAIVSGGTTKYADSVKGRFTISRDNAKNTVYLQMNSMKPEDTAVYYCAAALGLGGQKTRRYEYWGQGTQVTVSS	high polyreactivity
QDQLVESGGGLVQAGVSLRLICPASGLTFYTYAMGSYRQAPGKERELVAAIRRRGGRTYYADSVKGRFTISRDNAKNTVFLQMNSLKPEDTAVYYCAADYSTLFKYDYWGQGTQVTVSS	low polyreactivity
QVQLVESGGGLVQAGGSLRLSCAASGFTFSWNAMGWYRQAPGKEREFVAAITSSGGSTYADSVKGRFTISRDNAKNTVYLQMNSLKPEDTAVYYCAAGGFSQHGHGYWGQGTQVTVSS	high polyreactivity
QVQLVESGGGLVQAGGSLRLSCAASGSTFGYYAMGWYRQAPGKERELVAAIRWSGSTYYADSVKGRFTISRDNAKNTVYLQMNSLKPEDTAVYYCAADFVKRQANRQFDYWGQGTQVTVSS	high polyreactivity
QVQLVESGGGLVQAGGSLRLSCAASGSTFRRYAMGWYRQAPGKERELVAAISSNGGSTYYADSVKGRFTISRDNAKNTVYLQMNSLKPEDTAVYYCAAYRSLDFDYWGQGTQVTVSS	high polyreactivity
QVQLVESGGGLVQAGGSLRLSCAASGRIFRSNAMGWYRQAPGKERELVAAINYRGDRTYYADSVKGRFTISRDNAKNTVYLQMYSLKPEDTAVYYCNARRYSIPVSAGGYDSWGQGTQVTVSS	high polyreactivity
QVQLVESGGGLVQAGGSLRLSCAASGRTFSWNTMGWYRQAPGKEMELVATITWSGTSTYYADSVKGRFTISRDNAKNTDYLQMNSLKPEDTAVYYCAKRRLFPYTISRYDYWGQGTQVTVSS	high polyreactivity
QVQLVESGGGLVQAGGSLRLSCAASGRTFQEYAMGWYRQAPGKERELVADISDGGSTNYADSVKGRFTISRDNAKNTVYLLMKSLKPEDTAGYYCAAARPGWRVGYDYWGQGTQVTVSS	low polyreactivity

Sequence	polyreactivity (PSR sort gate)
QVQLVESGGGLVQAGGSLRLTCAASGSTFRGNTMGWSRQAPGKERELVAAISWDGGTTYYADSVKGRFTISRDNAKNTVYLQMNCLKPEDTAVYYCAADWTGQEYEYWGQGTQVTVSS	low polyreactivity
QVQLVESGGGLVQAGGSLRLSCAASGRIFQYYAMGWYRQATGKERELVAAISRTGSPYYADSVKGRVTISRDNAKNTVSLQMNSLTPADTAVYFCAADYWPQSNRWVYFRYGYWGLGTQVTVSS	high polyreactivity
QVQLVESGGGLVQAGGSLRLSCAASGFIFGKYAMGWYRQAHGKERELVAAITSDGRTYYADSVKGRFTISRDNAKNTVYLQMNSLKPEDTAVYYCAATRYGHRYYYRPYEYWGQGTQVTVSS	high polyreactivity
QVQLVESGGGLVQAGGSLRLSCAASGRTSARYGMGWYRQAPGKERELVASIRRSGDSTYYADSVKGRFTISRDNAKNTVYLQMNSLKPEDTAVYYCAAGGKQGKRDYWGQGTQVTVSS	low polyreactivity
HGQLVDSGGGLVQAGGSLRLICAASGYTYYDYAMGRYREAPGKEMELVADISTSDGSTFYADSVKGRFTISRDNAKNTVYLQMNSLKPEDTAVYYCNTDGSLGLYDWFWPSNNDYWGQGTQVTVSS	low polyreactivity
QVQLVESGGGLVQAGGSLRLSCAASGSTFYTNAMGWYRQAPWKERELVAAISNAVSTYYADSVKGRFTISRDNAKNTVYLQMKSLKPEDTAVYYCAADPIGLSSLWFRYSVSDVDYWGQGTQVTVSS	low polyreactivity
QVQLVESGGGLVQAGGSLRLSCAASGSILGDNAMGWYRQAPGKERELVAAISYRGGSTYADSVKGRFTISRDNAKNTVYLQMNRLKPEDTAVYYCNITDIDDSQYREYEYWGQGTQVTVSS	low polyreactivity
QVQLVESGGGIVQAGGSLRLSCAAAGSNFTVYVMGWYRQAPGKERELVARISSDGSTNYADSVKGRFTISRDNAKNSVFLQMNSLKPEDTAVYYCNADFPFSGRRPWYNAYDYWGQGTQVTVSS	low polyreactivity
QVQLVESGGGLVQAGGSLRLSCAASGRTSRIYAMGWYRPAPGKRELVAAISGSGSRTYYADSVKGRFTISRDNAKNTVYIQMNSLKPEDTAVYYCNGRYWYRDHPPEFDYWGQGTQVTVSS	high polyreactivity
QVQLVESGGGLVQAGGSLRLSCAASGSTFEYNAMGWYIQAPGKERELVASSTNYADSVKGRFTISRDNANNTVYLQMNSLKPEDTAVYYCAREQCVNRNHDYWGQGTQVTVSS	low polyreactivity
QVQLVESGGGLVQAGGSLRLSCAASGFIFAIYAMGWYRQAPGKERELVAAITSSSSTYADSVKGRFTISRDNAKNTVYLQMNSLKPEDTAVYYCAADTYSYRNSNDYWGQGTQVTVSS	low polyreactivity
QVQLVESGGGLFQAGGSLRLSCAASGSTFRFNAKGWYRQAPGKERQFVAAIRFTGGSTYYADSVKGRFTISRDNAKNTVYLQMNSLKPEDTAVYYCINADEYSTVEYDYWGQGTQVSVSS	low polyreactivity
QVQLVESGGGLVQAGGSLRLSCAASGFTFYYYAMGWYRQAPGKERELVATIRWSGGSTYYADSVKGRFTISRDNAKNTVYLQMNSLKPEDTAVYYCNATPPQYVKYPSYKYDYWGQGTQVTVSS	low polyreactivity
QVQLVESGGGLVQAGGSLRLSCAASGSTLNRYAMGWYRQAPGKERELVAAISISGGRTYYADSVKGRFTISRDNAKNTVYLQMNSLKPEDTAVYYCADGNYLYSYGYGYWGQGTQVTVSS	high polyreactivity
QVQLVESGGGLVQAGGSLRLSCAASGLIFYLYTMGWYRQAPGKERELVAAISRSGTITYYADSVKGRFTISRDNAKNSVYLQMNSLKPEDTAVYYCAATYTYKIGTRYDYWGQGTQVNVSS	high polyreactivity
QFQLVESGGGLVQAGGSLRLSCAASGIIFYENNMGWYRQAPGKERELVAAINSGGSTYYADSVKGRFTISRDNAKNTVYLQMNSLKPEDTAVYYCDADDYSGLYYSSTYRYEYWGQGTQVTVSS	low polyreactivity
QVQLQESGGGLVQAGGDLRLSCAASGTIFRDYIMGWYRQAPGKEREFVAGIDRGANTNYADSVKGRFTISRDNAKNTVYLQMNSLKPEDTAVYYCAADWWRVDMDYWGQGTQVTVSS	low polyreactivity
QVQLVESGGGLVQAGGSLRLSCAASGRIFHFYAMGWYRQAPGKERELVAAITSRTGNTYYADSVKGRYTISRDNAKNTVYLQMNSLKPEDTAVYYCAAKLVNALLHYRNWNHNNYWGQGTQVNVSS	low polyreactivity
QVQLVESGGGLVQAGGSLRLSCAASGFIFRDNAMGWYRQAPGKERELVAAISKSGGRTYYADSVKGRFTISRDNAKNTVYLQMNCLKPEDTAVYYCAADAYHFGRMDYWGQGTQVTVSS	high polyreactivity
QVQLVESGGGLVQAGGSLRLSCAASGFIFGGYAMGWYIQGHGKERELVAAISSSGGSTYYADSVKGRFTISRDNAKNSVYLQMNSLKPEDTAVYYCAKVGWSRRYYYWGQGTKVTVSS	high polyreactivity
QVQLVESGGGLVQAGGSLRLSCAASGFTFLYNAMGWYRQAPGKERELVASINSGGSTNYADSVKGRFTISRDNAKNTVYLQMNSLKPEDTAVYYCAADKGPLQRGFDYWGQGTQVTVSS	low polyreactivity
